In the nanobody polyreactivity screen of Harvey et al. (2022):

Assay: yeast display, Sf9 membrane polyspecificity reagent, FACS + sequencing; frameworks hold sequencing errors
In short: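 Sorting gates, low and high (top ~1%), were placed on anti-HA fluorescence to track expression and on streptavidin fluorescence to track reagent binding. A clone's polyreactivity label is taken from the gate it came out of. The reagent was 10% biotinylated, detergent-solubilized Sf9 membrane, applied for 1 hour at 4 °C to galactose-induced yeast display cells.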
With “QVQLVESGGGLVQEGGSLRLSCASSGSTFRYNVMGWYRQAPGKERELVAAITRRGSRTYYADSVKGRFTISRDNAKNTVYLHMNSLKPADTAVYDCNKNSLSVPANDDYWGQGTQVTVSS” the “polyreactivity (PSR sort gate)” value was “high polyreactivity”.
For “QVQLVESGGGLVQEGGSLSLICAASGRIYTPYAMGSYRQAPGKERELVAVIRDGSTYYADSVKGRFTISRDNAKNTVYLQMNSLKPADTAVYDCRYDIWVWWSGAYDYWGQCTQVTVSS”, the “polyreactivity (PSR sort gate)” value was “low polyreactivity”.
In the case of “QVQLVESGGGLVQGGGSLGLSCAASGRIFPVNAMGWYRQAPGKERELVAAISTTGARTYYADSVKGRFTISRDNAKNTVYLQMNSLKPEDTAVYYCAAKQFSVTLSNYWGQGTQVTVSS”, the “polyreactivity (PSR sort gate)” value is reported as “low polyreactivity”.
In the case of “QVQLVESGGGLVQGGGSLRLSCAASGINFGLYTMGWYRQAPGKERELVAAISDSGGRTYYADSVKGRFTISRDNAQNTVYLQMNSLKPEDTSVYYCAAEFWYVWEYNYWGQGTQVTVSS”, the “polyreactivity (PSR sort gate)” value is reported as “high polyreactivity”.
In the case of “QVQLVESGGGLVQGGGSLRLSCAASGNILRIYAMGWYRQAPGKEREFVAAIRQSDGRTYYADSVKGRFTISRDNAKNTVYLQMNSLKPEDTSVYYCAADVYQEYDYWGQGTQVTVSS”, the “polyreactivity (PSR sort gate)” value is reported as “high polyreactivity”.
For “QVQLVESGGGLVQGGGSLRLSCAASGRTFQTNVMGWYRPAPGKERELVAAITLSGGSTNYADSVKGRFTISRDNAKNTVYVQMNSLKPEDTAVYYCNAERRYRHQWTPHYEYDYWGQGTQVSVSS”, the “polyreactivity (PSR sort gate)” value was “low polyreactivity”.
In the case of “QVQLVESGGGLVQGGGSLRLSCAASGRTFYWNAMGWYRQAPGKERELVAAIRWRGGNTYYADSVKGRFTISRDIEKNTVYLQMNSLKPEDSAVYYCAAAGGNTEMGYWGQGSQVTVSS”, the “polyreactivity (PSR sort gate)” value is reported as “high polyreactivity”.
For “QVQLVESGGGLVQGGGSLRLSCAASGSIFPGNAMGCYRQAPGKERELLAVIDFSGASTYYADSLKGRFTISRDNAKNTVYLQMKSLKPEATAVYWGQGTQVTVSS”, the “polyreactivity (PSR sort gate)” value was “low polyreactivity”.
With “QVQLVESGGGLVQGGGTLRLSCAASGSILSRNTMGWYRQAPGKEREFVADISKGDSTYYADSVKGRFTISRDNAKNTGYLQMNILKPVDTAVYYCAVDSWRRAMWYYGRYGYWGQGTEVTVSS” the “polyreactivity (PSR sort gate)” value was “low polyreactivity”.
In the case of “QVQLVESGGGLVQPGGRLRLSCEASGIFTDYAMGCYRQEPGKERELVAAISWRGGSTYFADSVKGRFTISRDNAKKTVYLQMHSLKPEDTAVFYCAAGVRGGGGRYRYGYWGQGTQVTVSS”, the “polyreactivity (PSR sort gate)” value is reported as “high polyreactivity”.
In the case of “QVQLVESGGGLVQPGGSLLLRGAASGSIYYRNVMGWYRPAPGKERELVAAISSGGNTYYADSVKGRFTISRDNAKNTVYLQMNSLKPVDTAVYYCNAEYEGLSFGWYEYWYDYWGQGTQVTVSS”, the “polyreactivity (PSR sort gate)” value is reported as “high polyreactivity”.
In the case of “QVQLVESGGGLVQPGGSLRLSCAASGFIFYWYAMGWYRQAPGKERELVAAISYDTGSTYYADSVKGRFTISRDNAKITVYFQINSLKPEDTAVYYCAADASWRVYTGYYWGQGTQVTVSS”, the “polyreactivity (PSR sort gate)” value is reported as “high polyreactivity”.
For “QVQLVESGGGLVQPGGSLRLSCAASGFTFIRNVMGWYRQAPGKERELVARITYSSGSTYYADSVKGRFTISRDNAKNTVYLQMNSLKPEDTAVYYCAVRLYSYLYNPFNYWGQGTQVTVSS”, the “polyreactivity (PSR sort gate)” value was “high polyreactivity”.
For “QVQLVESGGGLVQPGGSLRLSCAASGGIFLGNAMGGYRQAPGKERELVAGITWSGGRTYYADSVKGRFTISRDNAKNTVYLQMTSLKPEDTAVYDCNKDTPGTRFYGIYSYDYWGQGTQVTVSS”, the “polyreactivity (PSR sort gate)” value was “low polyreactivity”.
For “QVQLVESGGGLVQPGGSLRLSCAASGIIFSFYTIGWDRQEPGKEMELVAAISSSGGRTFYADSVKGRFTISRDNAKNTVYLQMNSLKPEDTAVYYCYAAHTREYYWGQGTQVTLSS”, the “polyreactivity (PSR sort gate)” value was “high polyreactivity”.
With “QVQLVESGGGLVQPGGSLRLSCAASGRIFGWYAMGWYRQAPGKERELVAAITWSGTSTYYADSVKGRFTISRDNAKNTVYLQMNSLKPEDTAVYYCAADSLRGSAPTYYSTLEYWGQGTQVTVSS” the “polyreactivity (PSR sort gate)” value was “low polyreactivity”.
In the case of “QVQLVESGGGLVQPGGSLRLSCAASGRISYVYTMGWYRQAPGKERELVAAISKSGGSTSYADSVKGRFTISRDNAKNTVYLQMNSLKPEDTAVYYCAAGRYYYTYAYDHWGQGTQVTLSS”, the “polyreactivity (PSR sort gate)” value is reported as “high polyreactivity”.
